For 167 variants, self-cleavage results are on record in the RNAGym collection of RNA variant scans (doi:10.7554/elife.80360).

The labels stand for the following.
B1: Hammerhead Ribozyme (parent)
chain: ACCGGAUGUGCUUUCCGGUCUGAUGAGUCCGUGAGGACGAAACAG

The variants in this data set derive from B1. Kind of data set: self-cleavage, relative activity (ratio to wild type); higher = more cleavage; co-transcriptional.
On to G31A G35A, for which the self-cleavage was 1.05.
Then U7G G25U, with 0.333.
In the case of U24G G36A it was 0.862; in that of G10A C15G, 0.899; in that of U14A C16A, 0.592.
Then G4A C30A, with 0.379; and G17A C30A, with 0.561; and G4A U28A, with 0.364.
As to G22A C43G, the self-cleavage was determined as 0.288.
In the case of U9G G39C, the self-cleavage was determined as 0.33.
With G22U A26C, the self-cleavage is 0.345.
Take C29U A40U: the self-cleavage amounted to 0.28.
On to G18A G33U, for which the self-cleavage is 0.726.
Then A1U U32C, with 0.436; and G33A A34U, with 0.873.
As for A1C C30G, the self-cleavage worked out at 0.34.
In the case of U13C A40U it was 0.277; in that of U13G U28G, 0.973; in that of C2G G22A, 0.292.
Then A40C C43A, with 0.299; and U19A G25C, with 0.296; and G39A A42G, with 0.319.
As to G39A A42C, the self-cleavage came out at 0.369.
In the case of U7A U28A it was 0.77; in that of C2U G18A, 1.19; in that of C43G G45C, 0.378.
As to G17C A34C, the self-cleavage worked out at 0.438.
For G27C U32A, the self-cleavage was found to be 0.716.
As for G5C C29G, the self-cleavage worked out at 0.344.
Take G4C G35C: the self-cleavage is 0.341.
On to A23G A34C, for which the self-cleavage stood at 0.338.
Take A1C G33A: the self-cleavage was 0.57.
With G27U G31A, the self-cleavage was found to be 0.529.
For the variant U13C G17C, the self-cleavage turned out to be 0.573.
Consider G4C A41U, for which the self-cleavage is 0.267.
As for U19C A23C, the self-cleavage stood at 0.299.
In the case of A42U C43A, the self-cleavage amounted to 0.344.
In the case of G33A A42C, the self-cleavage amounted to 0.394.
Consider C15G U21G, for which the self-cleavage was 0.326.
For C11A A41C, the self-cleavage was determined as 0.371.
C3G A34C: the self-cleavage amounted to 0.422.
Consider G22A C29G, for which the self-cleavage turned out to be 0.332.
As to C2G A42U, the self-cleavage was 0.292.
Then G18U C43G, with 0.373.
Turning to G17A G45C, the self-cleavage was found to be 0.385.
In the case of U9C U12G it was 1.1; in that of G33U A40G, 0.4.
On to C29U G35A, for which the self-cleavage stood at 0.636.
Then U21A A42G, with 0.307.
For C16A A26G, the self-cleavage was found to be 0.37.
Turning to C16A A26C, the self-cleavage worked out at 0.433.
As for C15G G17A, the self-cleavage is 0.322.
On to G17A G39A, for which the self-cleavage turned out to be 0.326.
On to C29U G31U, for which the self-cleavage amounted to 0.783.
On to A41U G45C, for which the self-cleavage was 0.392.
As to U9A U14A, the self-cleavage is 1.07.
With G25C G35C, the self-cleavage was 0.355.
In the case of G27U A41U, the self-cleavage came out at 0.347.
As for U9C U24A, the self-cleavage worked out at 1.29.
As to G17U U21C, the self-cleavage stood at 0.306.
Regarding C15G C38G, the self-cleavage turned out to be 0.386.
Consider U7A C15A, for which the self-cleavage turned out to be 0.852.
Then C11U C15U, with 1.18.
As to A26C U28A, the self-cleavage worked out at 0.572.
As to C15G C30A, the self-cleavage is 0.653.
Then C20G C43A, with 0.353; and A1C U21G, with 0.337.
U12G A40G: the self-cleavage turned out to be 0.326.
As to A6U U12C, the self-cleavage was found to be 0.716.
Regarding U13G A34G, the self-cleavage was determined as 0.886.
Regarding A41G A44U, the self-cleavage stood at 0.322.
For U12A G45A, the self-cleavage was found to be 0.678.
As for C16G A41C, the self-cleavage came out at 0.376.
Take G8U G22U: the self-cleavage was 0.348.
Consider C2G G5C, for which the self-cleavage worked out at 0.309.
On to G17U G22U, for which the self-cleavage was 0.359.
G31A G39A: the self-cleavage amounted to 0.356.
Turning to U7G A34G, the self-cleavage was determined as 1.67.
For the variant A1U G31A, the self-cleavage amounted to 1.03.
As to C11U U13C, the self-cleavage worked out at 0.915.
As to G10C C15G, the self-cleavage came to 0.524.
Consider A6G G27C, for which the self-cleavage came to 0.45.
For A23G C43U, the self-cleavage is 0.269.
As for A1C A6C, the self-cleavage turned out to be 0.393.
Then A1U G8A, with 0.687; and G22C G27U, with 0.352; and G10U U24A, with 1.01.
Regarding A1U C43G, the self-cleavage was determined as 0.448.
For the variant U12G C20U, the self-cleavage was 0.667.
Turning to U14A G17A, the self-cleavage worked out at 0.586.
Then G5C G45A, with 0.384; and U12G, with 0.976; and C3G G36C, with 0.328.
With U13A C29A, the self-cleavage amounted to 0.759.
Regarding C11G G17A, the self-cleavage is 0.511.
For the variant G36C G45U, the self-cleavage was found to be 0.367.
As for U12G C29G, the self-cleavage stood at 0.736.
Turning to U19C A41C, the self-cleavage was determined as 0.429.
For C11G U21C, the self-cleavage was determined as 0.987.
C15U U19C: the self-cleavage is 0.581.
Then C3U U9A, with 1.03; and G22C G31C, with 0.37.
In the case of C15A G22U, the self-cleavage amounted to 0.303.
U9A G22C: the self-cleavage came to 0.359.
Take C11U U14C: the self-cleavage was determined as 0.771.
Then G39U A42U, with 0.39.
Take A23G A44U: the self-cleavage is 0.339.
In the case of G27C A40U it was 0.356.
As to G8A A26G, the self-cleavage is 0.371.
For C38G A41G, the self-cleavage is 0.404.
Take U14A U19C: the self-cleavage was determined as 0.474.
As to U13C U32G, the self-cleavage worked out at 0.808.
On to U7C C20A, for which the self-cleavage amounted to 0.5.
For C2A A26G, the self-cleavage worked out at 0.293.
Turning to G18U G36U, the self-cleavage turned out to be 0.425.
Then G5A A34U, with 1.06; and G35C G36A, with 0.504.
Regarding U7C G27U, the self-cleavage was 0.412.
Consider C11G G39C, for which the self-cleavage is 0.541.
As to G27C A42G, the self-cleavage turned out to be 0.267.
Then G18A U32G, with 0.744; and U9C G31U, with 0.948; and G8A A23U, with 0.383.
In the case of U9A U13A it was 1.62; in that of G10A G17C, 0.61; in that of U9C A41U, 0.34.
For U7A A44G, the self-cleavage was 1.46.
Turning to U19G G25C, the self-cleavage came to 0.359.
On to U7G U19A, for which the self-cleavage was 0.398.
In the case of G17C C30A it was 0.458; in that of G17A A23G, 0.306; in that of U13G G35A, 0.916.
With G8A G18U, the self-cleavage is 0.635.
As to U7G C43G, the self-cleavage is 0.427.
Take A6U G10U: the self-cleavage came out at 0.747.
On to G10U G39A, for which the self-cleavage stood at 0.405.
On to C2U G17A, for which the self-cleavage was 0.392.
As to G31U A42C, the self-cleavage was 0.363.
In the case of U28C A42C it was 0.338; in that of G10C A44C, 0.61.
Take G17A C20A: the self-cleavage came to 0.327.
For A34C A41G, the self-cleavage amounted to 0.367.
For C3A C30G, the self-cleavage was found to be 0.426.
Turning to C16U U19G, the self-cleavage stood at 0.359.
In the case of C15G U24A it was 0.717.
On to U9C U19G, for which the self-cleavage amounted to 0.525.
Then G35A G36A, with 0.508; and G22C U32A, with 0.371.
As for U7A G8A, the self-cleavage turned out to be 1.23.
Turning to U19A G33A, the self-cleavage was 0.356.
In the case of A1U G39U, the self-cleavage was determined as 0.347.
Consider G5A A41U, for which the self-cleavage was determined as 0.327.
In the case of A37C A44U it was 0.368; in that of C11U G36A, 0.607.
U9G C30G: the self-cleavage was found to be 0.898.
In the case of U14A A23C, the self-cleavage was found to be 0.345.
With U9G C16U, the self-cleavage was found to be 0.848.
Consider C15U G35U, for which the self-cleavage is 0.701.
Regarding U14C G27A, the self-cleavage is 0.602.
In the case of A6U G22U it was 0.397; in that of U7A A41C, 0.407; in that of U19A A44C, 0.368.
On to G5C U32G, for which the self-cleavage is 0.452.
Consider U32G A42C, for which the self-cleavage worked out at 0.275.
Regarding U32G A42G, the self-cleavage turned out to be 0.357.
Consider U21A A44U, for which the self-cleavage amounted to 0.283.
Turning to G31C G39A, the self-cleavage was 0.355.
